Measurements published in paper PMC10273302 (Science (New York, N.Y.), 2023).

T1: EBV minimal peptide PPSTSSKLRPRWTFT (spotted for dot blot) (Human herpesvirus 4 (Epstein-Barr …))
T1 construct: also called EBV gp350 minimal peptide; 72153; source: "recombinant peptide" spotted on nitrocellulose
T1 chain: PPSTSSKLRPRWTFT

T2: influenza A minimal peptide VPNGTLVKTITNDQI (spotted for dot blot) (Influenza A virus (H3 hemagglutinin …))
T2 chain: VPNGTLVKTITNDQI


What was measured:
[1] = molecular target: T1, EBV minimal peptide PPSTSSKLRPRWTFT …; test: far-Western, overlay or dot blot; details: one partner purified
[2] = molecular target: T2, influenza A minimal peptide …
[3] = molecular target: T3, influenza A H3 hemagglutinin ectodomain trimer, A/Aichi/02/1968 (Influenza A virus A/Aichi/2/1968 (H3N2, …, UniProt P03437)); test: ELISA; details: both partners purified
T3 construct: source: Expi293, transient transfection, purified (Ni-NTA, SEC)

Row | Binder | binding result [1] | binding result [2] | also measured
1 | EBV_c57 (antibody, V domains shown, recombinant human IgG) VH: QVQLVQSGAEVKKPGASVKVSCKASGYTFTSYDINWVRQAPGQGLEWLGWMNPNNENTGYAQKFQGRIIMTRNTSIDTVYMELSSLRSEDTAVYYCEAIAAVSATEGAFDIWGQGTMVTVSS VL: not shown | binds | – | –
2 | EBV_c3 (antibody, V domains shown, recombinant human IgG; source: Expi293 or ExpiCHO, recombinant; filtered culture supernatant) VH: QVHLVQSGAEVKKSGASVKVSCKASGFTFTNHDINWVRQAPGQGLEWMGWINPNSGNTGFAQKFRGRVTLTRNNSITTAYMELRGLTYEDTAIYYCARAFCNSDRCSPELFDPWGQGTLVTVSS VL: QSVLTQPPSVSADPGQRVTISCSGSSSNIGNSYVSWYQQLPGTAPRFLIYDNNKRTSGIPDRFSGSKSGTSATLAITGLQTGDEADYYCATWDTSLRGVVFGGGTKLTVL | binds | – | –
3 | EBV_c138 (antibody, V domains shown, recombinant human IgG) VH: QVHLVQSGAEVKKSGASVKVSCKASGFTFTNHDINWVRQAPGQGLEWMGWINPNSGNTGFAQKFRGRVTLTRNNSITTAYMELRGLKYEDTAIYYCARAFCNSDRCSPELFDPWGQGTLVTVSS VL: QSVLTQPPSVSADPGHRVTISCSGTSSNIGNNYVSWYQQLPGTAPRFLIYDNNKRTSGIPDRFSGSKSGTSATLTISGLQTGDEADYYCATWDTSLRGVVFGGGTKLTVL | binds | – | –
4 | EBV_c127 (antibody, V domains shown, recombinant human IgG) VH: QVHLVQSGAEVKKFGASVQVSCKASGFTFTNHDINWVRQAPGQGLEWMGWINPNSGNTGFAQKFRGRVTLTRNNSITTAYMELRGLRYEDTAIYYCARAFCNSDRCSPELFDPWGQGTLVTVSS VL: QSVLTQPPSVSADPGQRVTISCSGTSSNIGKNFVSWYQQFPGTAPKFLIYDNNKRASGIPDRFSGSKSGTSAILAITGLQTGDEADYYCATWDNSLRGVLFGGGTKLTVL | binds | – | –
5 | EBV_c77 (antibody, V domains shown, recombinant human IgG) VH: QVHLVQSGAEVKRSGASVKVSCKASGFTFTNHDINWVRQAPGQGLEWMGWINPNSGNTGFAQKFQGRVTLTRNNSITTAYMELRGLRYEDTAIYYCARAFCNSDRCSPELFDPWGQGTLVTVSS VL: QSVLTQPPSVSADPGQRVTISCSGTGSNIGNNYVSWYQQLPGTAPRFLIYDNNKRTSGIPDRFSGSKSGTSATLAITGLQTGDEADYYCATWDTSLRGVVFGGGTKLTVL | binds | – | –
6 | clonotype4582 (Quake) (antibody, V domains shown) VH: EVQLVQSGAEVKKPGESLKISCKASGYTFTNYWIAWVRQMPGKGLEWMGIIFPSDSDTRYSPSFQGQVTISADKSVSTAYLQWSSLKASDTAMYYCARGAATILRGVVTSYNWFDSWGQGTLVTVSS VL: DVVMTQSPDSLAASLGERATINCTSSHNILYNSNNNNYLAWYQQKPGQPPKLLIYWASTRESGVPDRFSGSGSGTDFTLTISSLQAEDVAVYSCQQYFSTPYTFGQGTKLEIK | – | binds | –
7 | flu_c326 (antibody, V domains shown, recombinant human IgG) VH: EVQLVQSGAEVKKPGESLKISCRTSGFTFTRHWIAWVRQMPGKGLEWMGIIYPGDSDVTYNPSFQGQVTISADKSITTAYLQWSSLQASDTAIYFCAKPYNYCNTTTCYTRGYFDFWGRGTLVTVSS VL: DIVMTQSPDSLAVSLGERATINCKSSQSLLYRSDNKNYLAWYQQNPGQPPKLLIYWASIRESGVSDRFSGSGSGTDFTLTINSLQAEDVAVYYCQQYYFTPYTFGQGTKLEIK | – | – | binding result [3]: binds
8 | EBV_c120 (antibody, V domains shown, recombinant human IgG; source: Expi293 or ExpiCHO, recombinant; filtered culture supernatant) VH: QVHLVQSGAEVKKPGASVKVSCKASGFAFTTYDINWVRQAAGQGLEWMGWMNPNSGNRGYAQKFQGRVTMTRNTSITTAYMELTSLTSEDTAVYYCARAYCNSNRCSPELFDPWGQGTQVTVSS VL: QSVLTQPPSVSAAPGQMVTISCSGSSSNIGNNFVSWYQQLPGTVPKYVIYDNNKRPSGIPERFSGSRSGTSATLGITGLQTGDEADYYCATWDSSLRGVVFGGGTKLTVL | binds | – | –
9 | EBV_c10 (antibody, V domains shown, recombinant human IgG) VH: QVHLVQSGAEVKKPGASVKVSCQASGFAFTTYDINWVRQAAGHGLEWMGWMNPNSGNRGYAQKFQGRVTMTRNTSITTAYMELTSLTPDDTAVYYCARAFCNSNRCSPELFDPWGQGTQVTVSS VL: QSVLTQPPSVSAAPGQMVTISCSGGSSNIGNNFVSWYQQIPGTVPKYVIYDNDKRPSGIPERFSGSRSGTSATLVITGLQTGDEADYYCATWDNSLRGVVFGGGTKLTVL | binds | – | –
10 | EBV_c83 (antibody, V domains shown, recombinant human IgG) VH: QEQLVQSGTAVKKPGASVKVSCKTSRDTFTIYYIHWVRQAPGQGLEWMGIINPSGGNTSHAQKFQGRVTMTSDASTSTVYMELSSLRFEDTATYYCARVGYNWGSHSVSSPGAMDVWGQGTTVSVSS VL: SIELTQPSSVSVSPGQTATITCSGDVLPKQYAYWYQQKPGRAPMLVVYKDSERPSGISERFSGSSAGTAVTLTISAVQAEDEADYYCQSADTGGTYVIFGGGTKLTVL | binds | – | –
11 | EBV_c40 with light chain D51K (antibody, V domains shown, source: Expi293 or ExpiCHO, recombinant; filtered culture supernatant) VH: QVQMVQSGAEVKRPGDSVRVSCKASGYIFTNYHLHWVRQAPGQGLEWMGIVTPNGSRTNYAQKFKGRVIMSSEASTNTLYMDLSSLKSEDTAVYFCARARDLYGDSDFDYWGQGTPVMVSS VL: SYELSQPPSVSVSPGQTASVSCSGDSLGDKYVSWYQQRPGQSPVVVIYQKRKRPSGIPERFSGSNSGKAATLTISGAQAVDEATYFCQAWESSNVVFGGGTTLTVL | binds | – | –
12 | clonotype2760 (Quake) (antibody, V domains shown) VH: EVQLVQSEIEVRKPGESLKISCKGSGYNFATHWIGWVRQMPGKGLEWMGTIYPLDSDTRYSPYFQGQVTISADKSINTAYLQWNSLKASDTAMYYCARVPEGSVVAGEVHFYYYMDVWGKGTAVTVSS VL: DIVMTQSPDSLAVSLGERATINCKSSQSLLYSSNNRNYLAWYQHKPGQPPKLLMYWASTRESGVPDRFSGGGSETDFTLTISSLQAEDVAMYYCQQYYFTPYTFGQGTKLEIK | – | binds | –
13 | clonotype473 (10x_4) (antibody, V domains shown) VH: EVQLVQSGAEVKKPGESLRISCKGSGYTFSTHWIGWVRHMPGKGLEWVGVIYPDDSDTRLSPSFQGQVTISADKSTTTAFLWWSSLKASDTATYYCARGVQSCIRNTCSFYGWFDRWGQGTRVTVSS VL: DIVMTQSPDSLAVSLGERATIYCKSSHSLLYSSNNYNYLAWYQQKPGQPPKLLIYWASTRESGVPDRFSGSGSGTDFTLTISSLQAADVAVYYCQQYFYSPYTFGQGTKVEIR | – | binds | –
14 | EBV_c63 (antibody, V domains shown, recombinant human IgG) VH: QVQLVQSGAEVKKPGASVKVSCKASGYTFTSYYIHWVRQAPGQGLEWMGIINPSDGTTDYAQRLQGRVTMTRVTSTSTVYMELSSLRSEDTAVYYCARDREQMVRGIIISNGLDVWGQGTTVTVSS VL: QSALTQPASVSGSPGQSITFSCTGTSSDVGGYNFVSWYQQHPGKAPKLMIYDVTNRPSGVSNRFSGSKSGNTASLTISGLQAEDEADYYCSSYTSSSTLVFGTGTKVTVL | binds | – | –
15 | clonotype286 (10x_4) (antibody, V domains shown) VH: EVQLVQSGPEVKEPGESLKISCKASGYNFAKYWIAWVRQMPGKGLEWMGIVYPGDSDTRYSPSFQGQVTISADKSLTTAYLQWSSLKASDTAIYYCARGVQDCDSRNCYAYNWFDPWGQGTLVTVSS VL: DIVMTQSPESLAVSLGERATINCKSSHSVFFSSNNKNYLSWYQQKPGQPPKLLIYWASTRQSGVPDRFSGGGSGTDFTLTISSLQAEDVAVYYCQQYYYSPYTFGQGTKLEIK | – | binds | –
16 | flu_c645 (antibody, V domains shown) VH: EVQLVQSGAEVKKPGESLKISCQASGYIFVNYWVGWLRQAPGKGLEWIGIIFPGDSDTTYSPSFQGQVTISAAKSINTVYLQWNSLKASDTAMYYCARAPVPGMSGWFDPWGQGTLVTVSS VL: DIVMTQSPDSLAVSLGGGATIKCKSSHSLLYSSNSKNYLSWYQQKPGQPPKLLFYWASTRESGVPDRFSGSGSGTDFTLTIDSLQAEDLAVYFCQQYFYTPYTFGQGTKLEIN | – | binds | –
17 | flu_c504 (antibody, V domains shown) VH: EVQLVQSGAEVKKPGESLKISCKASGYTFTRYWIAWVRQMPGKGLEWMGIIYPGDSDTRYNPSFQGQVTISADKSINTAYLQWSSLKASDTAIYYCAMCVGSPTCYGWFDPWGQGTLVTVSS VL: DIVMTQSPDSLAVSLGERATINCKSSLNILYSSNKKNYLAWYQQKPGQPPKLLIYWASTRESGVPDRFSGSGSGTDFTLTISSLQAEDVAVYYCQQYHSIPYTFGQGSKLEIK | – | binds | –
18 | EBV_c98 (antibody, V domains shown, recombinant human IgG) VH: QVQLVESGGGVVQPGRSLRLSCAASGITLSSYGMHWVRQAPGKGLEWVAVISYDGSKKDYGDSVKGRFTISRDNFKNTLYLQMSSLRAEDTAVYYCAKDTIFDGMDVWGQGTTVTVSS VL: DVVMTQSPLSLPGTLGQPASISCRSSQSLVYSDGNTYLNWFQQRPGQSPRRLIYQVSNRDSGVPDRFSGSGSGTDFTLTISKVEAEDVGVYYCMQSTHWPLTFGGGTKVEIK | binds | – | –
19 | clonotype3 (10x_4) (antibody, V domains shown) VH: EVQLVQSGAEVKKPGESLKISCKVSGYSFTTYWIAWVRQMPGKGLEWMGIIYPGDSDTRYSPSFQGQVTISADKSVTTAYLQWGSVKASDTAMYYCARPPHFIDAGGRQTPGYFDLWGQGTLVTVSS VL: DIVMTQSPDSLAVSLGERATINCKSSQTVLFRSNNKNYLAWYQQKPGQPPKLLIYWASTRQSGVPDRFSGSGSGTDFTLTISSLQAEDVALYFCQQYHDSPYTFGQGTKVEIK | – | binds | –
20 | EBV_c124 (antibody, V domains shown, recombinant human IgG) VH: QVQLVQSGAEVRKPGASVKVSCKASGYTFNTYFIQWVRQAPGQGLEWMGVINSSGSGTRYAPKFRGRVILTRDTSTSTAFMELSSLTSEDTAVYYCARAAEGDYGDSALDYWGQGTLVSVSS VL: SYELTQPHSVSVSPGQTASIACSGEKLDKKYTCWYQQRPGQSPVLVIYQDRKRPSGIPERFSGSNSGNTATLTISGTQAIDEADYYCQVWDSNTVVFGGGTKLTVL | binds | – | –
21 | EBV_c124 with light chain D51K (antibody, V domains shown, source: Expi293 or ExpiCHO, recombinant; filtered culture supernatant) VH: QVQLVQSGAEVRKPGASVKVSCKASGYTFNTYFIQWVRQAPGQGLEWMGVINSSGSGTRYAPKFRGRVILTRDTSTSTAFMELSSLTSEDTAVYYCARAAEGDYGDSALDYWGQGTLVSVSS VL: SYELTQPHSVSVSPGQTASIACSGEKLDKKYTCWYQQRPGQSPVLVIYQKRKRPSGIPERFSGSNSGNTATLTISGTQAIDEADYYCQVWDSNTVVFGGGTKLTVL | binds | – | –
